Reference: patent publication WO2013151666A2

Target: Low density lipoprotein receptor (LDLR) expressed on HEK293 cells transfected with LDLR modified mRNA (mRNA SEQ ID NO: 21463) (human) (UniProt P01130)
Assay: FACS; rising amounts of BODIPY-LDL on HEK293 cells transfected with LDLR mRNA, 1 h at 37 C

Sequence of Low density lipoprotein receptor (LDLR) expressed on HEK293 cells transfected with LDLR modified mRNA (mRNA SEQ ID NO: 21463) (human) (P01130 22-860): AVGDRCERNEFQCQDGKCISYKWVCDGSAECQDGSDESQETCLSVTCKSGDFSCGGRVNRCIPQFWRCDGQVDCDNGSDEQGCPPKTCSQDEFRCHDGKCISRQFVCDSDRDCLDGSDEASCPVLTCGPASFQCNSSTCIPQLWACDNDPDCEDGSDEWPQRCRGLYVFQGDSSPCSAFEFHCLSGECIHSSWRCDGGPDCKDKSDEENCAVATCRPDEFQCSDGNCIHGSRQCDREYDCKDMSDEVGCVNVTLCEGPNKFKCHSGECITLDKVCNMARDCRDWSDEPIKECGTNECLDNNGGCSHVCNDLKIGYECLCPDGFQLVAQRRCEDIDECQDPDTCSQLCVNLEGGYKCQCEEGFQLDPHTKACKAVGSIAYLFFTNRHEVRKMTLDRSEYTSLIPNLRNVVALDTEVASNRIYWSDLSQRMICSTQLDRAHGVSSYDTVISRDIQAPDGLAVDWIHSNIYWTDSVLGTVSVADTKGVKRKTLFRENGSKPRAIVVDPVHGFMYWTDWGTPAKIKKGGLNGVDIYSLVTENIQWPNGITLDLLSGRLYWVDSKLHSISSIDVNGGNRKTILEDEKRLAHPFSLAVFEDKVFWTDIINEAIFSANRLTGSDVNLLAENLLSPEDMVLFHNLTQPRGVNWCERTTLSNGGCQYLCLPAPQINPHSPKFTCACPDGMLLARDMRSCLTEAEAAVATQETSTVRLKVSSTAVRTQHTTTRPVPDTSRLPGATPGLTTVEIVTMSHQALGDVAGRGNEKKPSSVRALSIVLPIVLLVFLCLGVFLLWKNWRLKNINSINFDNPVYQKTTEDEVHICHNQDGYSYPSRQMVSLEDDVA

Substance: BODIPY-labeled LDL (low density lipoprotein) (from UniProt P04114 28-4563) (ligand)
- Kd: 0.06 µg/mL
